Experimental data taken from patent publication US5595904.
Blank lines part the entries; values can stand above or below the substance they belong to.

Tests used:
[1] = molecular target: extracellular signal-regulated kinase 1 (ERK1) (rat)
[2] = molecular target: microtubule-associated protein 2 (MAP2)

specific activity of ERK1 with MAP2 after dephosphorylation [1]: 4 nmol/min/mg
Substance: catalytic subunit of phosphatase 2a (enzyme)

specific activity with MAP2 [2]: 300 nmol/min/mg
Substance: extracellular signal-regulated kinase 1 (ERK1) (enzyme)

specific activity (phosphorylation of substrate) [2]: 1 nmol/min/mg
specific activity (phosphorylation of substrate) (MBP): 1 nmol/min/mg
Substance: recombinant ERK2 (enzyme)
